First the molecules themselves.
T1: α2-antiplasmin, P08697
T1 chain: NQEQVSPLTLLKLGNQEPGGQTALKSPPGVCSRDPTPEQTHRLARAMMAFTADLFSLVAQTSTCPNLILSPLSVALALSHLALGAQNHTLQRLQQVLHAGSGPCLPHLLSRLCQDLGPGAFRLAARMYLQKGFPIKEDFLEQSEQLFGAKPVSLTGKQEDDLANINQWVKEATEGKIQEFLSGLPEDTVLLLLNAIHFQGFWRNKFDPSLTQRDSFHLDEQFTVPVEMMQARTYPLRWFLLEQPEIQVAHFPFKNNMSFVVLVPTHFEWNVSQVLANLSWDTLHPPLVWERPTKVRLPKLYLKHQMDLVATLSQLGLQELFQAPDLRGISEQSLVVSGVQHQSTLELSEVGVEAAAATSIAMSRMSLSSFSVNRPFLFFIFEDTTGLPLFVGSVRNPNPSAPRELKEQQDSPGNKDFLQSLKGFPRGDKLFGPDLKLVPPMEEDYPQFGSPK

B1: Mono-PEGylated Micro-plasmin variant (40 kDa PEG) V82C Catalytic Domain (SEQ ID NO. 4) (protein)
chain: APSFDCGKPQVEPKKCPGRVVGGCVAHPHSWPWQVSLRTRFGMHFCGGTLISPEWVLTAAHCLEKSPRPSSYKVILGAHQECNLEPHVQEIEVSRLFLEPTRKDIALLKLSSPAVITDKVIPACLPSPNYVVADRTECFITGWGETQGTFGAGLLKEAQLPVIENKVCNRYEFLNGRVQSTELCAGHLAGGTDSCQGDSGGPLVCFEKDKYILQGVTSWGLGCARPNKPGVYVRVSRFVTWIEGVMRNN
B2: Mono-PEGylated Micro-plasmin variant (20 kDa PEG) H87C Catalytic Domain (SEQ ID NO. 9) (protein)
chain: B1 chain with C82V, H87C
B3: Mono-PEGylated Micro-plasmin variant (20 kDa PEG) V82C Catalytic Domain (SEQ ID NO. 4) (protein)
chain: B1 chain
B4: Mono-PEGylated Micro-plasmin variant (40 kDa PEG) H87C Catalytic Domain (SEQ ID NO. 9) (protein)
chain: B1 chain with C82V, H87C
B5: Wild-type Micro-plasmin (SEQ ID NO. 2) (protein)
chain: B1 chain with C82V
B6: Bi-PEGylated Micro-plasmin variant (20 kDa-20 kDa PEG) V82C-H87C Catalytic Domain (SEQ ID NO. 12) (protein)
chain: B1 chain with H87C

Numbering of substitutions follows the chain as printed. Numbers in names are those of the source. Where only a bound is given, the exact number is not on record here.

This data set deals with T1, α2-antiplasmin, P08697.
With B1, the “In vitro Half-life (of inactivation by α2-antiplasmin)” value (shortened to “In vitro Half-life”) is more than 7 min.

Take B2: the “In vitro Half-life” value is 6 to 7 min. For B3 the value was 6 to 7 min. For B4 the value was more than 7 min. Turning to B5, the “In vitro Half-life” value is more than 5 min. The result for B6 reads more than 10 min.

For the origin of these results see patent publication US20220096608.
